Assays:
[1] = molecular target: T1, DEGW|ALQH (Table 1 substrate sequence)
T1 chain: DEGWALQH

[2] = molecular target: T2, NMKW|TRVL (Table 1 substrate sequence)
T2 chain: NMKWTRVL

[3] = molecular target: T3, PWTW|YGVK (Table 1 substrate sequence)
T3 chain: PWTWYGVK

[4] = molecular target: T4, VGKW|SYRM (Table 1 substrate sequence)
T4 chain: VGKWSYRM

[5] = molecular target: T5, gastricsin selective internally quenched fluorescent substrate DEGW^ALQH
T5 chain: DEGWALQH

[6] = molecular target: T6, FGIF|YLNG (Table 1 substrate sequence)
T6 chain: FGIFYLNG

[7] = molecular target: T7, GLY|FRYE (Table 1 substrate sequence)
T7 chain: GLYFRYE

[8] = molecular target: T8, HMIA|LYWG (Table 1 substrate sequence)
T8 chain: HMIALYWG

[9] = molecular target: T9, IKIL|MFYW (Table 1 substrate sequence)
T9 chain: IKILMFYW

[10] = molecular target: T10, cathepsin E selective internally quenched fluorescent substrate AGFSL|PA
T10 chain: AGFSLPA

B1: recombinant gastricsin (R&D Systems, 6186-AS) (protein)
chain: SVTYEPMAYMDAAYFGEISIGTPPQNFLVLFDTGSSNLWVPSVYCQSQACTSHSRFNPSESSTYSTNGQTFSLQYGSGSLTGFFGYDTLTVQSIQVPNQEFGLSENEPGTNFVYAQFDGIMGLAYPALSVDEATTAMQGMVQEGALTSPVFSVYLSNQQGSSGGAVVFGGVDSSLYTGQIYWAPVTQELYWQIGIEEFLIGGQASGWCSEGCQAIVDTGTSLLTVPQQYMSALLQATGAQEDEYGQFLVNCNSIQNLPSLTFIINGVEFPLPPSSYILSNNGYCTVGVEPTYLSSQNGQPLWILGDVFLRSYYSVYDLGNNRVGFATAA
[1]
  Relative Cleavage: 0.47
  Total Cleavage: 30
[2]
  Relative Cleavage: 0.33
  Total Cleavage: 21
[3]
  Relative Cleavage: 1
  Total Cleavage: 64
[4]
  Relative Cleavage: 0.34
  Total Cleavage: 22
[5]
  kcat/Km (M-1/s-1): 480000 M-1/s-1
  selectivity of fluorescent substrate cleavage (initial velocity) for gastricsin over cathepsin D: greater than 120-fold selective for gastricsin over both cathepsins D and E
  selectivity of fluorescent substrate cleavage (initial velocity) for gastricsin over cathepsin E: greater than 120-fold selective for gastricsin over both cathepsins D and E

B2: recombinant cathepsin E (R&D Systems, 1294-AS) (protein)
chain: IQFTESCSMDQSAKEPLINYLDMEYFGTISIGSPPQNFTVIFDTGSSNLWVPSVYCTSPACKTHSRFQPSQSSTYSQPGQSFSIQYGTGSLSGIIGADQVSVEGLTVVGQQFGESVTEPGQTFVDAEFDGILGLGYPSLAVGGVTPVFDNMMAQNLVDLPMFSVYMSSNPEGGAGSELIFGGYDHSHFSGSLNWVPVTKQAYWQIALDNIQVGGTVMFCSEGCQAIVDTGTSLITGPSDKIKQLQNAIGAAPVDGEYAVECANLNVMPDVTFTINGVPYTLSPTAYTLLDFVDGMQFCSSGFQGLDIHPPAGPLWILGDVFIRQFYSVFDRGNNRVGLAPAVP
[6]
  Relative Cleavage: 0.88
  Total Cleavage: 22
[7]
  Relative Cleavage: 1
  Total Cleavage: 25
[8]
  Relative Cleavage: 0.4
  Total Cleavage: 10
[9]
  Relative Cleavage: 0.68
  Total Cleavage: 17
[10]
  selectivity of fluorescent substrate cleavage (initial velocity) for cathepsin E over cathepsin D: more than 100-fold selective for cathepsin E over both cathepsin D and gastricsin
  selectivity of fluorescent substrate cleavage (initial velocity) for cathepsin E over gastricsin: more than 100-fold selective for cathepsin E over both cathepsin D and gastricsin

From patent publication US20200081011
